This passage reports FRET efficiency results from publication PMC11700639.

This experiment has as its target T1, MPZ-GFP (human), P25189.
T1 chain: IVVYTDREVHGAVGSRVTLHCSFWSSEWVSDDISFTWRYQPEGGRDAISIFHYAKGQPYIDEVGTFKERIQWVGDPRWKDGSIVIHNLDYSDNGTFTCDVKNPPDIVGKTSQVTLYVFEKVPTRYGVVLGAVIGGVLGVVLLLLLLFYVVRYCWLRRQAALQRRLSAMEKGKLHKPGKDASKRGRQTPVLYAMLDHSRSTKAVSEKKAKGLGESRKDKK
Kind of experiment: FRET or BRET. The note with it: remark: other sources report otherwise.

B1: MPZ-mCherry, P25189 30-248 (natural protein)
chain: T1 chain
Molecule B1 showed an FRET efficiency of 5.3%.
